Experimental data taken from publication PMC6170606, “Biological and Biochemical Roles of Two Distinct Cyclic Dimeric Adenosine 3′,5′-Monophosphate- Associated Phosphodiesterases in Streptococcus mutans” (Frontiers in Microbiology, 2018).

Experiments:
[1] = tested on: [H][C@@]1(O)[C@]2([H])OP(=O)(O)OC[C@@]3([H])O[C@@]([H])(n4cnc5c(N)ncnc54)[C@]([H])(O)[C@]3([H])OP(=O)(O)OC[C@@]2([H])O[C@@]1([H])n1cnc2c(N)ncnc21; experiment: purified protein; details: 50 mM potassium phosphate pH 5.0, 1 mM MnCl2, 0-0.3 mM substrate
Text: initial rate, LC quantification of end product pApA (A254) on rGdpP109-657-ProS2 (truncated recombinant GdpP, SMU_2140c)

[2] = tested on: Nc1ncnc2c1ncn2[C@@H]1O[C@H](COP(=O)(O)O[C@H]2[C@@H](O)[C@H](n3cnc4c(N)ncnc43)O[C@@H]2COP(=O)(O)O)[C@@H](O)[C@H]1O; experiment: initial rate, LC quantification of end product AMP (A254); assay type: biochemical, Streptococcus mutans; details: 50 mM potassium phosphate pH 7.0, 1 mM MnCl2, 0-0.3 mM substrate
Text: initial rate, LC quantification of end product AMP (A254) on rDhhP-ProS2 (recombinant DhhP, SMU_1297)

Substance	Km [1]	Vmax [1]	kcat [1]	Km [2]	Vmax [2]	kcat [2]
rGdpP109-657-ProS2 (truncated recombinant GdpP, SMU_2140c) (Streptococcus mutans UA159)	89.7 ± 7.29 µM	4.58 µmol/min/mg	4.02 ± 0.2 s⁻¹			
rDhhP-ProS2 (recombinant DhhP, SMU_1297) (Streptococcus mutans UA159)				199 ± 65.4 µM	32.1 µmol/min/mg	36.5 ± 8.08 s⁻¹
